Source: patent publication US10391180B2, “Self-assembling complex for targeting chemical agents to cells” (CEDARS-SINAI MEDICAL CENTER, priority 2007, dated 2019)

Tests used:
[1] = HerDox stability in cell culture media, agarose gel; format: in vitro ADME; conditions: serum-containing culture media, 37° C.
Protocol: FIGS. 9 (A)-(C) illustrates targeting in a mixed cell culture. As illustrated in FIG. 10 (A), equal numbers of MDA-MB-435 and GFP(+) MDA-MB-231 cells were treated with Dox alone (0.5 uM), Her-Dox (containing 0.5 uM Dox), or HerPBK10 (1.2 ug/well, equivalent to HerPBK10 in HerDox). Wells were assayed for GFP fluorescence (to determine relative MDA-MB-231 number) and crystal violet staining (to determine total cell number). As illustrated in FIG. 9 (B), cell survival was determined by calculating the relative doubling time (DT) of experimental (exp) cells normalized by control (con) cells based on the crystal violet stains (total cells) and GFP fluorescence (MDA-MB-231 cells). The DT of MDA-MB-435 was determined by subtracting the DT of MDA-MB-231 from the total cell DT. Relative survival is shown for Day 2 of treatment. As illustrated in FIG. 9 (C), there is stability in cell culture. Aliquots of culture media containing HerDox (after incubation for the indicated times at 37° C.) were electrophoresed on a 2% agarose gel. HerDox incubated at 37° C. in HEPES-buffered saline, lacking serum, was processed in parallel. Dox fluorescence was visualized by UV excitation. Free Dox (Dox alone) is not retained in the gel whereas Dox incorporated in HerDox is. […]

[2] = test system: MDA-MB-435 cells; assay: Intracellular translocation in live cells, Dox fluorescence microscopy; format: cell-based; conditions: for intracellular location of Dox fluorescence: 0.5 uM
Protocol: FIGS. 14 (A)-(B) illustrates comparison of HerDox and Dox intracellular translocation and targets in live cells. MDA-MB-435 cells were incubated with HerDox or free Dox (0.5 uM) at 37° C. Live (unfixed) cells were imaged by brightfield and fluorescence as depicted in […], or DIC and confocal fluorescence, as depicted in FIG. 14 (B), microscopy. Dox is indicated by red or magenta pseudocolor.
To understand the mechanism of HerDox mediated tumor cell death, the inventors examined HER2+ cells microscopically after treatment with HerDox, using Dox fluorescence to detect intracellular location. […] These dynamics, in addition to earlier targeting results, support a receptor-mediated HerDox entry mechanism. Even the intranuclear pattern of Dox when delivered by HerPBK10 differs from free Dox.

B1: HerDox: non-covalent complex of HerPBK10, a small double-stranded nucleic acid and intercalated Dox (conjugate)
chain: LPPRLKEMKSQESAAGSKLVLRCETSSEYSSLRFKWFKNGNELNRKNKPQNIKIQKKPGKSELRINKASLADSGEYMCKVISKLGNDSASANITIVESNEIITGMPASTEGAYVSSESPIRISVSTEGANTSSSTSTSTTGTSHLVKCAEKEKTFCVNGGECFMVKDLSNPSRYLCKCQPGFTGARCTENVPMKVQNQEKAEELYMRRAAMYEEGPPPSYESVVSAAPVAAALGSPFDAPLDPPFVPPRYLRPTGGRNSIRYSELAPLFDTTRVYLVDNKSTDVASLNYQNDHSNFLTTVIQNNDYSPGEASTQTINLDDRSHWGGDLKTILHTNMPNVNEFMFTNKFKARVMVSRLPTKDNQVELKYEWVEFTLPEGNYSETMTIDLMNNAIVEHYLKVGRQNGVLESDIGVKFDTRNFRLGFDPVTGLVMPGVYTNEAFHPDIILLPGCGVDFTHSRLSNLLGIRKRQPFQEGFRITYDDLEGGNIPALLDVDAYQASLKDDTEQGGGGAGGSNSSGSGAEENSNAAAAAMQPVEDMNDHAIRGDTFATRAEEKRAEAEAAAEAAAPAAQPEVEKPQKKPVIKPLTEDSKKRSYNLISNDSTFTQYRSWYLAYNYGDPQTGIRSWTLLCTPDVTCGSEQVYWSLPDMMQDPVTFRSTRQISNFPVVGAELLPVHSKSFYNDQAVYSQLIRQFTSLTHVFNRFPENQILARPPAPTITTVSENVPALTDHGTLPLRNSIGGVQRVTITDARRRTCPYVYKALGIVSPRVLSSRTFKKKKKKKKKK
modifications: left off: small tags and cut ends
notes: non-covalent complex of HerPBK10, a small double-stranded nucleic acid and intercalated Dox
loss of Dox fluorescence from conjugate over time [1]: no such loss from HerDox is detectable
intracellular location of Dox fluorescence ([2]; 0 min of uptake): mostly at the cell periphery
intracellular location of Dox fluorescence ([2]; 60 min): accumulated in the nucleus
intranuclear pattern of Dox ([2]; live cells, confocal): preferentially accumulates in nucleolar structures
